Several values for one entry are separate records, joined by “and”; a condition that tells them apart may be missing. Equal entries are not always repeated. Where no end group is shown, it is not given here. [ ]: non-standard residue; d: D form. The star is where a group is joined. Biotin = O=C1N[C@H]2[C@H](CS[C@H]2CCCCC(=O)*)N1; AEEA = NCCOCCOCC(=O)O
Tests used:
[1] = target: IGF-1R on MCF-7 cells (MCF-7S8, MCF7) (human, UniProt P08069 31-1367); test: cell-based or functional assay
[2] = target: T1, human insulin-like growth factor-1 receptor (HIGF-1R) (human, UniProt P08069 31-1367); test: 125I-IGF-1 displacement, SPA-assay
T1 construct: Detergent-solubilised receptor purified on WGA-agarose; also called HIGFIR
T1 sequence (P08069 31-1367 limits assumed): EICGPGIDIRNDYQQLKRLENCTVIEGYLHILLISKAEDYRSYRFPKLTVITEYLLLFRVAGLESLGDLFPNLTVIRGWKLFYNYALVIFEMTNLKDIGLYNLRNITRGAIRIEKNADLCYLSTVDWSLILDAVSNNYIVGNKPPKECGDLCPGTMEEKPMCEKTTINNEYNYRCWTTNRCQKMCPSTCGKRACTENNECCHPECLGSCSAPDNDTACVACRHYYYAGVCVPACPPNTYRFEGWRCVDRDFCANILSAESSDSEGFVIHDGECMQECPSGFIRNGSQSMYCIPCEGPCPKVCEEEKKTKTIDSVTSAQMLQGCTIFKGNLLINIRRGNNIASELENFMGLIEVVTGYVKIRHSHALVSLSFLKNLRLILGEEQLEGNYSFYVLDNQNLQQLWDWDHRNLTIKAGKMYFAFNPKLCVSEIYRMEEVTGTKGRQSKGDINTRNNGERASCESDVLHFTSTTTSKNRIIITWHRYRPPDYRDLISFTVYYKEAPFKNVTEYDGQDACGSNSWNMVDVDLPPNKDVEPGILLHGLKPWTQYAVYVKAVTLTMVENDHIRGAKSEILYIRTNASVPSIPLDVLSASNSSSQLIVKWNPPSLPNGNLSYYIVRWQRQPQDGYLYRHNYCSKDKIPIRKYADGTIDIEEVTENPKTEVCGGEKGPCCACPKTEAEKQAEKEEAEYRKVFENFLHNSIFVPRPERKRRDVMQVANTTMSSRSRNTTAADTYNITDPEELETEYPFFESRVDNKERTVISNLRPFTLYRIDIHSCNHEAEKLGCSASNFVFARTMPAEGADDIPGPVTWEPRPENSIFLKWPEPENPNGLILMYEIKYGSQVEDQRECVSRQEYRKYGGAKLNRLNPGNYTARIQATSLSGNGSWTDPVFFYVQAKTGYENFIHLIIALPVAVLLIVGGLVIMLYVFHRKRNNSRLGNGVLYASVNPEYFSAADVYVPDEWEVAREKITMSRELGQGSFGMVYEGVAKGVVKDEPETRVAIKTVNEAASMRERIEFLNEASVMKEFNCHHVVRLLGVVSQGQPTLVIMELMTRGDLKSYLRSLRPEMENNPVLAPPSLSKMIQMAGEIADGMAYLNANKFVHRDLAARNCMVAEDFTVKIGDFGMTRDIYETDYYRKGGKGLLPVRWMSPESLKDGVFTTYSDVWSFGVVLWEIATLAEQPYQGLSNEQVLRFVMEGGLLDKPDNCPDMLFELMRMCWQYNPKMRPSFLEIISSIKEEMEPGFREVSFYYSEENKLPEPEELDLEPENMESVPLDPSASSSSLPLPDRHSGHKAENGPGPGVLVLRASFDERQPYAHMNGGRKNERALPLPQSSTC
Source text: In certain cases, a scintillation proximity assay (SPA assay) was used to determine IGF-1R affinity.

[3] = target: T1, human insulin-like growth factor-1 …; test: 125I-IGF-1 displacement, PEG-assay
Method: IGF-1R affinity studies were generally performed as follows. […] The day before harvest cells were moved to serum free conditions and before harvest the cells were rinsed with and ice cold PBS solution. The cells were solubilized in cold lysis buffer (4 ml lysis buffer/1×10⁸ cells); vortexed vigorously to lysis in lysis buffer (50 mM Hepes (pH 8.0); 150 mM NaCl; 1% Triton X-100; 2 mM EDTA; 10 μg/mlaprotinin; 0.5 mM PEFABLOC (Roche)); and the lysate centrifuged at 4° C., 20000 rpm, for 15 minutes. […] In some cases, human insulin receptor (HIR) affinity for select test peptides was similarly measured.

IGF-1R on SW480 cells [4] = target: T2, IGF-1R on SW480 cells (UniProt P08069 31-1367, limits assumed); test: cell-based or functional assay
T2 sequence (P08069 31-1367 limits assumed): as above

IGF-1R on L6 cells = test: cell-based or functional assay
IGF-1R on SW480 cells [5] = target: T2, IGF-1R on SW480 cells; test: cell-based or functional assay; remark: listed apart in the source

Chain of IGF-1R on MCF-7 cells (MCF-7S8, MCF7) (P08069 31-1367): as the sequence (P08069 31-1367 limits assumed) above

B1: F170 (peptide)
peptide: EISFRCQLFVLAGMHPCPVDVGGEGFE
IC50 in MCF-7S8, in presence of IGF-1 [1]: 2000 nM

B2: F306 (peptide)
peptide: Ac-SFYSCLESLVTGPKERSRGQWEGCRR
modifications: cysteine pairing not given here
Kd [2]: 100 nM

B3: F157 (peptide)
peptide: GVRAMSFYDALVSVLGLGPSG
Kd [3]: 2000 nM

B4: F213 (peptide)
peptide: EGRVDDAFYEWFERQLGE
Kd [3]: 800 nM

B5: F320 (peptide)
peptide: SFYSCLESLVKRPTERSRGQWVGCR
IC50, IGF-1 (10 nM)-induced proliferation of SW480 cells, exp. 13262-014 (IGF-1R on SW480 cells [4]): > 10000 nM | IC50, down regulation of 3 nM IGF-1 stimulation to basal level, IGF-IR, L6 cells (IGF-1R on L6 cells): 2000 nM and > 1000 nM | IC50, down regulation of 3 nM IGF-1 stimulation to basal level, IRS-1, L6 cells (IGF-1R on L6 cells): > 2000 nM | IC50, down regulation of 3 nM IGF-1 stimulation to basal level, MAPK42, L6 cells (IGF-1R on L6 cells): 1000 nM | IC50, down regulation of 3 nM IGF-1 stimulation to basal level, MAPK44, L6 cells (IGF-1R on L6 cells): 1000 nM

B6: F194 (peptide)
peptide: XEESFYSCLESLVNGGAERSDGQWEGCREE
modifications: N-terminal Lig (lysine with a 2-aminohydroxyacetyl group on the epsilon amino group)
Kd [2]: 55000 nM

B7: F392 (peptide)
peptide: QFYGCLLDLSLGVPSFGWKKKCITA
IC50, IGF-1 (10 nM)-induced proliferation of SW480 cells, exp. 13262-025 (IGF-1R on SW480 cells [4]): > 10000 nM | IC50, IGF-1 (10 nM)-induced proliferation of SW480 cells, exp. 13262-027 (IGF-1R on SW480 cells [4]): 1000 nM

B8: F364 (peptide)
peptide: VQDDCRGRPCGDADSFYEWFDQQAGYGSSSRRAPQT
IC50, IGF-1 (10 nM)-induced proliferation of SW480 cells, exp. 13262-015 (IGF-1R on SW480 cells [4]): > 10000 nM

B9: F410 (peptide)
peptide: EGRVDDAFYEWFERQLGEELCQSWGVRIGWLAGLCPE
Kd [2]: 37000 nM

B10: F263 (peptide)
peptide: VQDDCRGRPCGDADSFYEWFDQQAS
Kd [2]: 2500 nM

B11: F428 (peptide)
peptide: DFYGCLLDLSLGVPSLGWRRRCIT
IC50, IGF-1 (10 nM)-induced proliferation of SW480 cells, exp. 13717-019 (IGF-1R on SW480 cells [4]): 1000 nM | IC50, IGF-1 (10 nM)-induced proliferation of SW480 cells, exp. 13717-027 (IGF-1R on SW480 cells [4]): 1000 nM

B12: F380 (peptide)
peptide: SFYSCLESLVNGPAEKFRGRRDGCR
Kd [2]: 46000 nM

B13: F407 (peptide)
peptide: RQFYGCLLDLSLGVPSFGWRRRCITAR
Kd [2]: 69000 nM

B14: F227 (peptide)
peptide: ESFYSCLASLVTGIPRSNSGTQVFCREE
IC50, IGF-1 (10 nM)-induced proliferation of SW480 cells, exp. 13262-015 (IGF-1R on SW480 cells [4]): > 10000 nM

B15: F164 (peptide)
peptide: EDHRLCGTDEYLMQDLFVRGLCRLIWE
Kd [3]: 4000 nM

B16: F119 (peptide)
peptide: XGSLDESFYDWFERQLGKK
modifications: N-terminal Lig (lysine with a 2-aminohydroxyacetyl group on the epsilon amino group)
Kd [3]: 1000 nM

B17: F230 (peptide)
peptide: ESFYSCLASLVAGTPWPKGGSWERCREE
Kd [3]: 20000 nM

B18: F139 (peptide)
peptide: FFYRCLSRLLGGQLGSRLGLSCIGD
Kd [3]: 8000 nM

B19: F250 (peptide)
peptide: SFYSCLESLVNGPAEKSRGQWDGCRK
Kd [3]: 42000 nM

B20: F110 (peptide)
peptide: DDDKGSLDESFYDWFERQLGTFYSCLASLLTGTPQPNRGPWERCR
Kd [3]: 1000 nM

B21: F414 (peptide)
peptide: {Biotin-AEEA}-SFYSCLESLVQGPAEKSRGQWEGCRK
modifications: cysteine pairing not given here
Kd [2]: 65000 nM

B22: F263 (peptide)
peptide: VQDDCRGRPCGDADSFYEWFDQQAS
IC50 in SW480 (M) in presence of IGF-1 (IGF-1R on SW480 cells [5]): > 1e-06 M | IC50 in SW480 (M), peptide alone (IGF-1R on SW480 cells [5]): > 1e-06 M

B23: F270 (peptide)
peptide: ESYGDCRDRPCGDAPNFYDWFVQQASE
Kd [2]: 7000 nM

B24: F431 (peptide)
peptide: GVGGWRYGSFPSFSSQTRS
Kd [2]: 1.7 nM

B25: F216 (peptide)
peptide: EWLEQERAWIWCEIQGSGCRAE
Kd [3]: 10000 nM

B26: F138 (peptide)
peptide: QFYGCLLDLSLGVPSFGWRRRCITA
IC50 in MCF-7S8, in presence of IGF-1 [1]: 500 nM | IC50, down regulation of 3 nM IGF-1 stimulation to basal level, IRS-1, L6 cells (IGF-1R on L6 cells): 300 nM | IC50, down regulation of 3 nM IGF-1 stimulation to basal level, MAPK42, L6 cells (IGF-1R on L6 cells): 300 nM | IC50, down regulation of 3 nM IGF-1 stimulation to basal level, MAPK44, L6 cells (IGF-1R on L6 cells): 300 nM and 100 nM | IC50, down regulation of 3 nM IGF-1 stimulation to basal level, PKB/Akt, L6 cells (IGF-1R on L6 cells): 300 nM and 100 nM

B27: F429 (peptide)
peptide: DFYGCLLDLSLGVPSLGWRRRCITA
IC50, IGF-1 (10 nM)-induced proliferation of SW480 cells, exp. 13717-019 (IGF-1R on SW480 cells [4]): 500 nM | IC50, IGF-1 (10 nM)-induced proliferation of SW480 cells, exp. 13717-027 (IGF-1R on SW480 cells [4]): 1000 nM | IC50, down regulation of 3 nM IGF-1 stimulation to basal level, IGF-IR, L6 cells (IGF-1R on L6 cells): 50 nM | IC50, down regulation of 3 nM IGF-1 stimulation to basal level, IRS-1, L6 cells (IGF-1R on L6 cells): 40 nM | IC50, down regulation of 3 nM IGF-1 stimulation to basal level, MAPK42, L6 cells (IGF-1R on L6 cells): 300 nM | IC50, down regulation of 3 nM IGF-1 stimulation to basal level, MAPK44, L6 cells (IGF-1R on L6 cells): 100 nM | IC50, down regulation of 3 nM IGF-1 stimulation to basal level, PKB/Akt, L6 cells (IGF-1R on L6 cells): 100 nM

B28: F264 (peptide)
peptide: RQWDCRGRPCGDAESFYEWFDQQRS
IC50 in SW480 (M) in presence of IGF-1 (IGF-1R on SW480 cells [5]): > 1e-05 M | IC50 in SW480 (M), peptide alone (IGF-1R on SW480 cells [5]): > 1e-05 M

B29: F365 (row r332, SEQ ID NO 200) (peptide)
peptide: Ac-SFYSCLESLVQGPAEKSRGQWEGCRK
modifications: cysteine pairing not given here
notes: Second row labelled F365
Kd [2]: 260 nM

B30: F191 (peptide)
peptide: EEGVDEVRAWLWCQISGLGCESEEX
modifications: C-terminal Lig (lysine with a 2-aminohydroxyacetyl group on the epsilon amino group)
Kd [3]: 54000 nM

B31: F254 (peptide)
peptide: ESFYSCLESLVAGPAEKSRGQWEGCR[AEEA][AEEA]GYSWLRDVLMEKQAQLKREGSVGRQE
modifications: cysteine pairing not given here
notes: 111 conjugated by POX
Kd [2]: 82000 nM

B32: F159 (peptide)
peptide: KLHNLMFYYGLQRLVWGAGLG
Kd [3]: 5000 nM

B33: F406 (peptide)
peptide: QFYGCLLDLSLGVPSFGWRRRCITA
modifications: N-terminal Pox (8-amino-3,6-dioxaoctanoic acid)
Kd [2]: 14000 nM

B34: F201 (peptide)
peptide: ELSFACLLSQLSGVVLPDCLLGEDE
Kd [3]: 43000 nM

B35: F404 (peptide)
peptide: VQDDCRGRPCGDADSFYEWFDQGYGSSSRRAPQT
Kd [2]: 62000 nM

B36: F202 (peptide)
peptide: ELQGFCELLATVTGVTGLGCLDYQPIE
IC50 in SW480 (M) in presence of IGF-1 (IGF-1R on SW480 cells [5]): > 1e-05 M

B37: F397 (peptide)
peptide: SQDQVGASLGSAISGRGGLSNFYSCLTSLATDTTRPSRRPWERCR
Kd [2]: 28000 nM

B38: F141 (peptide)
peptide: IFYSCLASLLHGGPQRNTGPWERCRR
IC50, IGF-1 (10 nM)-induced proliferation of SW480 cells, exp. 13262-015 (IGF-1R on SW480 cells [4]): > 10000 nM

B39: F321 (peptide)
peptide: SFYSCLESLVSGPAEKSHRRWEACR
IC50, IGF-1 (10 nM)-induced proliferation of SW480 cells, exp. 13262-014 (IGF-1R on SW480 cells [4]): > 10000 nM

B40: F215 (peptide)
peptide: ESFYSCLESLVNGPAEKSRGQWDGCRE
Kd [3]: 82000 nM

B41: F249 (peptide)
peptide: SFYSCLESLVNGPAEKSRGQWDGCR
IC50 in SW480 (M) in presence of IGF-1 (IGF-1R on SW480 cells [5]): > 1e-05 M | IC50 in SW480 (M), peptide alone (IGF-1R on SW480 cells [5]): > 1e-05 M

B42: F142 (peptide)
peptide: TFYSCLASLLTGPREQNRGAWERCRR
Kd [3]: 40 nM

B43: F158 (peptide)
peptide: VEGRGLFYDLLRQLLARRQNG
Kd [3]: 900 nM

B44: F229 (peptide)
peptide: ETFYKCLASVLTGSTQTKRRPWEGCREE
Kd [3]: 37000 nM

Source: patent US20110039779A1 (published 2011)
